In assay [1] the target is T1, CCK-B receptor (as coated in the indirect ELISA; form not stated).
T1 chain: CETPRIRGTGTRELE
Briefly: ELISA.

For assay [2], the target named is T2, 15-amino-acid extracellular CCK-B receptor peptide fragment CETPRIRGTGTRELE
T2 construct: Custom peptide (GenScript) used for immunization and panning; also called CCK-B peptide
T2 peptide: Biotin-CETPRIRGTGTRELE
Briefly: indirect ELISA on CCK-B receptor peptide.

Ends that are not written are not given here. * marks the point of attachment. Biotin = O=C1N[C@H]2[C@H](CS[C@H]2CCCCC(=O)*)N1

B1: CCK-BR-scFv14-3 (scFv)
chain: MAGAELVRSGASVKLSCTASGFNIKDYYIHWVKQRPEQGLEWIGWIDPENGDTEYAPKFQGKATMTADTSSNTAYLQLSSLTSEDTAVYYCNAGGRFAYWGQGTLVTVSAAKTTAPSGGGGSGGGGSGGGGGSGGGGSSSLSVSSGEKVTMSCKSSQSLLNSGNQKNYLAWYQQKPGQPPKLLIYWASTDESGVPDRFTGSGSGTDFTLTVSSVQAENLALYYCQNDHSYPYHVFDGGTKLEIKRADAAALE
B1: binding in assay [1] was characterised by a dissociation constant (Kd) of 0.349 µM. This lies in the sub-micromolar range.

B2: CCK-BR-scFv134-1 (scFv)
scFv: MAGAELVKPGASVKMSCKASGYTFTDYWMHWVKQRPGQGLEWIGAIDTSDSYTSYNQKFKGKATLTVDKSSSTAYIQLSSLTSEDSAVYYCARSEGYLPFDYWGQGTTLTVSSAKTTAPSGGGGSGGGGSGGGGGSGGGGSLSLPVSFGDQVSISCRSSQSLANSYGNTYLSWYLHKPGQSPQLLIYGISNRFSGVPDRFSGSGSGTDFTLKISTIKPEDLGMYYCLQGTHQPRTFGGGTKLEIKRADAAALEHHHHHH
In assay [1], B2 had a Kd of 0.366 µM.

B3: CCKBR-scFv11-2 (scFv)
scFv: MAQVQLKQSGAELVRPGSSVKISCKASGYAFTNYLIEWVKQRPGQGLEWIGQIYPGDGDTNYNGKFKGKATLTVDNSSSTAYMELRSLTSEDSAVYYCARAATWYYAMDYWGQGTSVTVSSGGGGSGGGGSAIMSASPGEKVTITCSASSSVSYMHWFQQKPGTSPKLWIYSTSNLASGVPARFSGSGSGTSYSLTISSMEAEDAASYFCHQWSSYPWTFGGGTKLEIKRADAAALEHHHHHH
Turning to B3, the binding result in assay [2] was “binds”.

B4: CCK-BR-scFv77-2 (scFv)
scFv: MAGAELVRSGASVKLSCTASGFNIKDYYIHWVKQRPEQGLEWIGWIDPENGDTEYAPKFQGKATMTADTSSNTAYLQLSSLTSEDTAVYYCNAGGRFAYWGQGTLVTVSAAKTTAPSGGGGSGGGGSGGGGGSGGGGSSSLSVSAGEKVTMSCKSSQSLLNSGNQKNYLAWYQQKPGQPPKLLIYGASTRESGVPDRFTGSGSGTDFTLTISSVQAEDLAVYYCQNDHSYPYTFGGGTKLEIKRADAAALEHHHHHH
Consider B4, for which the Kd in assay [1] stood at 0.195 µM.

For orientation: Kd means the free concentration of one partner at which half of the binding sites on the other are occupied at equilibrium, for simple one-to-one binding.

Values taken from US20210340265A1 (UNM RAINFOREST INNOVATIONS, published 2021).
